{"source": "paper PMC12822431", "about": "“A Pan‐TE Map Reveals the Important Role of Transposable Elements in Gene Expression and Phenotypic Diversity in 2,311 Rapeseed Accessions”", "binders": {"B1": {"name": "M2 (M1 with all C nucleotides mutated) (dsDNA)", "DNA 1": "TTTTTTTATTTATATTAAATTTATT", "DNA 2": "AATAAATTTAATATAAATAAAAAAA"}}, "target": "T1, BnaA01G0374400ZS (MYB TF, ortholog of AT3G11280) (Brassica napus (ZS11), UniProt A0A078HEX6 1-259)", "T1 sequence": "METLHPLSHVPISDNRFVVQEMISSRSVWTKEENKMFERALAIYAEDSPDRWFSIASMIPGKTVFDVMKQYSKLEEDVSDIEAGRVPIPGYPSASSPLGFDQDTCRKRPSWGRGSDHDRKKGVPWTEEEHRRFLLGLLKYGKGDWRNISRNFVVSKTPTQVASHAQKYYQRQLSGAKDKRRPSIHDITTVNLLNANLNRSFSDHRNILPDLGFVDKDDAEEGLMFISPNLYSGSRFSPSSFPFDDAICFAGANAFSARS", "test": "EMSA; Beyotime GS009 EMSA kit, room temperature, 20 min, 5% native polyacrylamide gel, chemiluminescent detection; buffer, salt and pH not stated", "conditions": "protein: recombinant; tags: His; label: biotin; blunt", "data": [{"binder": "B1", "values": [{"measurement": "binding result", "result": "no binding"}]}]}
